Target: human CD3 epsilon (CD3ε) (human) (UniProt P07766)
Assay: flow cytometry on human T cells

- EC50 (read off the curve): 0.03 nM
Substance: OKT3 (antibody)

— patent US20230057263A1
